Measurements published in PMC3902929 (Nucleic Acids Research, 2013).

Target: the molecule itself
Assay: crystal structure

B1: Clostridium thermocellum polynucleotide kinase (CthPnk) mutant D38N (enzyme, UniProt A3DJ38 1-170, looked up)
chain: MKLTIPELSLVVLIGSSGSGKSTFAKKHFKPTEVISSNFCRGLVSDDENDQTVTGAAFDVLHYIVSKRLQLGKLTVVDATNVQESARKPLIEIAKDYHCFPVAVVFNLPEKVCQERNKNRTDRQVEEYVIRKHTQQMKKSIKGLQREGFRYVYILNSPEEVEEVVFERQP
**Q.** Does B1 bind?
**A.** binds
